In this data set the target is HvHsfB2c (Hordeum vulgare (barley) cv. Golden …, UniProt F4ZC69 1-362). The data set is described as follows: EMSA; 100 ng poly(dI-dC); EMSA as described previously (ref 24), with 100 ng poly(dI-dC); buffer, salt, pH and temperature not given. To be noted: protein: ivt; chain copies: 3; 5' overhang 4 nt (TCGA) on both strands, 40 bp duplex.
HvHsfB2c, sequence (F4ZC69 entry or part of it): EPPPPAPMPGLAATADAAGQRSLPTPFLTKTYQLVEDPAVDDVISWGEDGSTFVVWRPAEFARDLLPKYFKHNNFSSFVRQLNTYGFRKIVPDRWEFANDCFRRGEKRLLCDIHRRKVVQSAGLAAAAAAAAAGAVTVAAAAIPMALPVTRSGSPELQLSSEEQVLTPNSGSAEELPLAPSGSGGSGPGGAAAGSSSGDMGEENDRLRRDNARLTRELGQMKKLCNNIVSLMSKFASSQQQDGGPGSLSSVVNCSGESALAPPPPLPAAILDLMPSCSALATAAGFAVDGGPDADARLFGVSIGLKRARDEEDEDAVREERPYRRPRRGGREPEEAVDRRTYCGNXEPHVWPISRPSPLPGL

B1: HSE-box fragment of HvsHsp17.5-CI promoter (HSE-1/HSE-2) (dsDNA)
DNA 1: TCGAACAACCCAAAATCCAAAAAATTCCACAACCCCAAAAAGGC
DNA 2: TCGAGCCTTTTTGGGGTTGTGGAATTTTTTGGATTTTGGGTTGT
As for B1, the binding result is “binds”.

Source of the values: publication PMC3942355, “Unraveling Regulation of the Small Heat Shock Proteins by the Heat Shock Factor HvHsfB2c in Barley: Its Implications in Drought Stress Response and Seed Development”.
